These results are taken from article PMC5216124, “Cell division orientation is coupled to cell–cell adhesion by the E-cadherin/LGN complex” (Nature Communications, 2017).

This test has as its target T1, LGN-TPR:S-tag (human, UniProt P81274 8-311).
T1 construct: LGN, human, NM_013296.4, TPR repeats, amino acids 8-311; also called LGN-TPR with C-terminal S-tag; not shown: S-tag, C-terminal, kept
T1 sequence (looked up): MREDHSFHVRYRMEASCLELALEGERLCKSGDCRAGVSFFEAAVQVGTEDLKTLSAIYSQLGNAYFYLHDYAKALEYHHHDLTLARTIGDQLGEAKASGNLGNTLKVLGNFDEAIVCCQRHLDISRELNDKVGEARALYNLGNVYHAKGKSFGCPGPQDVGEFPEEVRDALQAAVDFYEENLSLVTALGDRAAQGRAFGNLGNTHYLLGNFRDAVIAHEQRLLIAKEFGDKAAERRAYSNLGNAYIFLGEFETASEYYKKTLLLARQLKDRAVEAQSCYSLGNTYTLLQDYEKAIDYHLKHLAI
In words: pull-down; in vitro competition: E-cad-cyto/LGN-TPR:S-tag complex (GST cleaved off with TEV) held on S-protein agarose by the S-tag; 100 μg NuMA (1808-1988) added, 4 °C overnight; blotted for LGN and E-cadherin. The following applies: both partners purified.

B1: region of human NuMA containing the LGN-binding site (domain or fragment, UniProt Q14980-1 1808-1988, looked up)
chain: RRRTTQIINITMTKKLDVEEPDSANSSFYSTRSAPASQASLRATSSTQSLARLGSPDYGNSALLSLPGYRPTTRSSARRSQAGVSSGAPPGRNSFYMGTCQDEPEQLDDWNRIAELQQRNRVCPPHLKTCYPLESRPSLSLGTITDEEMKTGDPQETLRRASMQPIQIAEGTGITTRQQRK
notes: also called NuMA peptide; source: E. coli BL21 (DE3), purified (glutathione agarose, TEV cleavage, MonoQ)
For B1, the binding result is “binds”.
